Results taken from publication PMC5473912, “Regulation of sub-compartmental targeting and folding properties of the Prion-like protein Shadoo” (Scientific Reports, 2017).

Target: T1, Calreticulin (CRT), endogenous mouse (mouse (endogenous in GT1), UniProt P14211 18-416)
T1 construct: Calreticulin (CRT), mouse, immunoprecipitated with anti-CRT antibody; also called ER chaperone Calreticulin; source: endogenous, GT1 lysate
T1 sequence (looked up): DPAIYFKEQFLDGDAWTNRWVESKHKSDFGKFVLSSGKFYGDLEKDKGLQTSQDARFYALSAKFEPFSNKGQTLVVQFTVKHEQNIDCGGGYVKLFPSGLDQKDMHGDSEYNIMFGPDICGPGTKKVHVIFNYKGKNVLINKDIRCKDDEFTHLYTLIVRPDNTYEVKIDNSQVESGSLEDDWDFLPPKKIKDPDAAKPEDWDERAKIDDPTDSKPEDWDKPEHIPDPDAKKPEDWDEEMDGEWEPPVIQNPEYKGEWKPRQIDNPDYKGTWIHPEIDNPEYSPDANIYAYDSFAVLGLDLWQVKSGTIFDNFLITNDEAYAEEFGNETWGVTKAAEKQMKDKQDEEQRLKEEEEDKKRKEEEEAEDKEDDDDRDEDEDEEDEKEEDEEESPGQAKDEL
Experiment: co-IP; Calreticulin immunoprecipitated from GT1 lysates (JS buffer, 1% TX-100, 150 mM NaCl, pH 7.5) with anti-CRT Ab and protein A-Sepharose overnight at 4 °C; Sho revealed by Western blot with SPRN-R12; cells under control conditions or cholesterol depletion (βCD 10 mM, 1 h)
Conditions: partners not purified

B1: Shadoo (Sho), mature fully glycosylated ~22 kDa isoform, endogenous mouse (natural protein, mouse (endogenous in GT1), UniProt Q8BWU1 25-122, looked up)
chain: KGGRGGARGSARGVRGGARGASRVRVRPAPRYGSSLRVAAAGAAAGAAAGVAAGLATGSGWRRTSGPGELGLEDDENGAMGGNGTDRGVYSYWAWTSG
modifications: fully N-glycosylated (complex-glycosylated)
notes: Shadoo (Sho, SPRN), mouse, the mature fully glycosylated isoform that migrates at ~22 kDa; also called mature Sho; mature glycosylated Sho; source: endogenous, GT1 lysate
fold increase in the immunocomplex upon cholesterol depletion against control: ~3 fold
